Ends that are not written are not given here.
Target: major capsid protein (p24) of HIV-1 (HIV-1 (SF-2), UniProt P03349)
Assay: cell-based or functional assay

Binder	antiviral inhibitory activity as determined by p24 production and RT activity in the culture supernatants (H9 cells, HIV-1 SF-2, 100 µM peptide)
Pro-Lys-Glu-NH2 [Pro-Lys-Glu-NH2]	> 80%
Glu-Pro-Phe-NH2 [Glu-Pro-Phe-NH2]	> 80%
Thr-Leu-Glu-NH2 [Thr-Leu-Glu-NH2]	> 80%
Arg-Val-Leu-NH2 [Arg-Val-Leu-NH2]	> 80%

Reference: US20030060599A1, “Tripeptide amides that block viral infectivity and methods of use thereof” (published 2003)
